Here are results for 2 substances from patent US20160015827A1.

Values joined by “and” are separate entries in the source; they are usually repeats but may differ in a detail not shown here. Identical values can stand only once.

Experiment [1] concerns the target human folate receptor alpha (FRA) (human) (UniProt P15328). Kind of experiment: flow cytometry on OVCAR-3 cells, 10 µg/mL.
Experiment [2] shares this target. Briefly: flow cytometry on NCI-H2110 cells, 10 µg/mL. In general terms: Flow cytometry measures light scatter and fluorescence of single cells or particles in a stream.
For experiment [3] the target is unchanged. Briefly: flow cytometry on SK-OV-3 cells, 10 µg/mL.
The target is the same in experiment [4]. Kind of experiment: flow cytometry on NCI-H292 cells, 10 µg/mL.
The target is the same in experiment [5]. Kind of experiment: flow cytometry on NCI-H2110 cells, secondary antibody alone (background).
For experiment [6] the target is unchanged. Kind of experiment: flow cytometry on NCI-H292 cells, secondary antibody alone (background).
The target is the same in experiment [7]. Briefly: flow cytometry on OVCAR-3B cells, secondary antibody alone (background).
Experiment [8] has the same target. Briefly: flow cytometry on SK-OV-3 cells, secondary antibody alone (background).

Chain of human folate receptor alpha (FRA) (human) (P15328 25-234 limits assumed): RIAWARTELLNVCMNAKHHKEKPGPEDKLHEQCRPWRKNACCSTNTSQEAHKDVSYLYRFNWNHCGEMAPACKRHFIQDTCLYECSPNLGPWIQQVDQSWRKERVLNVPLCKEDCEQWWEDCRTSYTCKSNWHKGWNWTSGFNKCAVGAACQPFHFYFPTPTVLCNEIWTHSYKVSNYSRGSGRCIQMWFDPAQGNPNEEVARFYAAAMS

isotype control antibody human IgG: the MFI in experiment [1] was determined as 7 MFI; in experiment [2] it was 5 MFI; in experiment [3] it was 6 MFI; in experiment [4], 6 MFI.
Take “goat F(ab')2-anti-human IgG (H+L)-RPE or goat anti-human IgG-RPE (antibody)”: the MFI in experiment [5] is 5 MFI; in experiment [6] it was 6 MFI; in experiment [7], 5 MFI; in experiment [8], 6 MFI and 5 MFI.
